From article PMC3841738 (Genes & Development, 2013) come the findings set out here.

This data set concerns the molecule itself. Nature of the data set: SAXS.

B1: NtrC1 ATPase domain (Aquifex aeolicus) (domain or fragment)
chain: LRKENELLRREKDLKEEEYVFESPKMKEILEKIKKISCAECPVLITGESGVGKEVVARLIHKLSDRSKEPFVALNVASIPRDIFEAELFGYEKGAFTGAVSSKEGFFELADGGTLFLDEIGELSLEAQAKLLRVIESGKFYRLGGRKEIEVNVRILAATNRNIKELVKEGKFREDLYYRLGVIEIEIPPLRERKEDIIPLANHFLKKFSRKYAKEVEGFTKSAQELLLSYPWYGNVRELKNVIERAVLFSEGKFIDRGELSCLVNSK
One may read the stoichiometry N as the number of molecules, sites or subunits per partner or assembly. With B1, the “stoichiometry N” value is 7.
